Source: IntAct's records for PubMed 31515488

B1: Centrosomal protein of 55 kDa (Homo sapiens), Q53EZ4 (parent)
chain: MSSRSTKDLIKSKWGSKPSNSKSETTLEKLKGEIAHLKTSVDEITSGKGKLTDKERHRLLEKIRVLEAEKEKNAYQLTEKDKEIQRLRDQLKARYSTTTLLEQLEETTREGERREQVLKALSEEKDVLKQQLSAATSRIAELESKTNTLRLSQTVAPNCFNSSINNIHEMEIQLKDALEKNQQWLVYDQQREVYVKGLLAKIFELEKKTETAAHSLPQQTKKPESEGYLQEEKQKCYNDLLASAKKDLEVERQTITQLSFELSEFRRKYEETQKEVHNLNQLLYSQRRADVQHLEDDRHKTEKIQKLREENDIARGKLEEEKKRSEELLSQVQFLYTSLLKQQEEQTRVALLEQQMQACTLDFENEKLDRQHVQHQLHVILKELRKARNQITQLESLKQLHEFAITEPLVTFQGETENREKVAASPKSPTAALNESLVECPKCNIQYPATEHRDLLVHVEYCSK
partner: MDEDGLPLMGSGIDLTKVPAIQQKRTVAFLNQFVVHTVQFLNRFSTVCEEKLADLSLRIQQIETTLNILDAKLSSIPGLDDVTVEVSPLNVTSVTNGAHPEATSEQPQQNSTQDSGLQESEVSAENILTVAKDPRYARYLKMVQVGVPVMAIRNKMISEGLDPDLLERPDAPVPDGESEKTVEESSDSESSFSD
B2: Protein FAM200C (Homo sapiens), Q8IZ13 (parent)
chain: MSKKRKWDDDYVRYWFTCTTEVDGTQRPQCVLCNSVFSNADLRPSKLSDHFNRQHGGVAGHDLNSLKHMPAPSDQSETLKAFGVASHEDTLLQASYQFAYLCAKEKNPHTVAEKLVKPCALEIAQIVLGPDAQKKLQQVPLSDDVIHSRIDEMSQDILQQVLEDIKASPLKVGIQLAETTDMDDCSQLMAFVRYIKEREIVEEFLFCEPLQLSMKGIDVFNLFRDFFLKHKIALDVCGSVCTDGASSMLGENSEFVAYVKKEIPHIVVTHCLLNPHALVIKTLPTKLRDALFTVVRVINFIKGRAPNHRLFQAFFEEIGIEYSVLLFHTEMRWLSRGQILTHIFEMYEEINQFLHHKSSNLVDGFENKEFKIHLAYLADLFKHLNELSASMQRTGMNTVSAREKLSAFVRKFPFWQKRIEKRNFTNFPFLEEIIVSDNEGIFIAAEITLHLQQLSNFFHGYFSIGDLNEASKWILDPFLFNIDFVDDSYLMKNDLAELRASGQILMEFETMKLEDFWCAQFTAFPNLAKTALEILMPFATTYLCELGFSSLLHFKTKSRSCFNLSDDIRVAISKKVPRFSDIIEQKLQLQQKSL
partner: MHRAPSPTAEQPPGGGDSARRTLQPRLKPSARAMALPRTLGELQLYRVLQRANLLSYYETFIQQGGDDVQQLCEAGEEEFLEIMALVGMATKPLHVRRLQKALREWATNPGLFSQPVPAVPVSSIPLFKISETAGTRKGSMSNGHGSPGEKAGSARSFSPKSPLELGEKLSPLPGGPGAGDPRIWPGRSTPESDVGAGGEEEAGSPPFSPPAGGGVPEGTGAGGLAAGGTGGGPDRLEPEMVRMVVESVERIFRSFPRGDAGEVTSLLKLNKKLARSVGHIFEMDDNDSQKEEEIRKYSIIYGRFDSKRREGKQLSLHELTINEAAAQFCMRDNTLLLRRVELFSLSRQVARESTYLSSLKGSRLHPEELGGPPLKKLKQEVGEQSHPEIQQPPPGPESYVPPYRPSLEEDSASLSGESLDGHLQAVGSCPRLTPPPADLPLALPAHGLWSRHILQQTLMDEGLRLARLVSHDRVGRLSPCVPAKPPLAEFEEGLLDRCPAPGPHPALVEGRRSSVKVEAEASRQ
B3: Carboxy-terminal domain RNA polymerase II polypeptide A small phosphatase 1 (Homo sapiens), Q9GZU7 (parent)
chain: MDSSAVITQISKEEARGPLRGKGDQKSAASQKPRSRGILHSLFCCVCRDDGEALPAHSGAPLLVEENGAIPKQTPVQYLLPEAKAQDSDKICVVIDLDETLVHSSFKPVNNADFIIPVEIDGVVHQVYVLKRPHVDEFLQRMGELFECVLFTASLAKYADPVADLLDKWGAFRARLFRESCVFHRGNYVKDLSRLGRDLRRVLILDNSPASYVFHPDNAVPVASWFDNMSDTELHDLLPFFEQLSRVDDVYSVLRQPRPGS
B4: Germ cell-less protein-like 1 (Homo sapiens), Q96IK5 (parent)
chain: MGSLSSRVLRQPRPALAQQAQGARAGGSARRPDTGDDAAGHGFCYCAGSHKRKRSSGSFCYCHPDSETDEDEEEGDEQQRLLNTPRRKKLKSTSKYIYQTLFLNGENSDIKICALGEEWSLHKIYLCQSGYFSSMFSGSWKESSMNIIELEIPDQNIDVEALQVAFGSLYRDDVLIKPSRVVAILAAACLLQLDGLIQQCGETMKETVNVKTVCGYYTSAGTYGLDSVKKKCLEWLLNNLMTHQNVELFKELSINVMKQLIGSSNLFVMQVEMDIYTALKKWMFLQLVPSWNGSLKQLLTETDVWFSKQRKDFEGMAFLETEQGKPFVSVFRHLRLQYIISDLASARIIEQDAVVPSEWLSSVYKQQWFAMLRAEQDSEVGPQEINKEELEGNSMRCGRKLAKDGEYCWRWTGFNFGFDLLVTYTNRYIIFKRNTLNQPCSGSVSLQPRRSIAFRLRLASFDSSGKLICSRTTGYQILTLEKDQEQVVMNLDSRLLIFPLYICCNFLYISPEKKN
partner: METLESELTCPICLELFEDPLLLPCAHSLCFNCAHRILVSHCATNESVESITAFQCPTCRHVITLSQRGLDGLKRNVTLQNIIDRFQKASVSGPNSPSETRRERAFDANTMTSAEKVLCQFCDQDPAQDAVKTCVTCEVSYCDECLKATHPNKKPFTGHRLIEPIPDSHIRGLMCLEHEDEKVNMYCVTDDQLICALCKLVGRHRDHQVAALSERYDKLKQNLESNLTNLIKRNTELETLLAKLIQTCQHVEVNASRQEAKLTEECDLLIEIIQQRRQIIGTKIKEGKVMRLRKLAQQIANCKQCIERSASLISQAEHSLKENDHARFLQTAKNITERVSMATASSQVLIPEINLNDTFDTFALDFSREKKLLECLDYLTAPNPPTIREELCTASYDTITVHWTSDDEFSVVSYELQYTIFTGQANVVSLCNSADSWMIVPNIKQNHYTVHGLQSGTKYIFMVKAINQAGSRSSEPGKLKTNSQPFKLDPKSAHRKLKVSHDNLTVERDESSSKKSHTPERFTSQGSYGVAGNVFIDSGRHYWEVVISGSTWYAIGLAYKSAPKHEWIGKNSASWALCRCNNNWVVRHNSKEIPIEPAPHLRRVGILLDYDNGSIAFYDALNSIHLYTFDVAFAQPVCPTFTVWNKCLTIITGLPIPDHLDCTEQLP

Variants of: B1
Details: with wasc3_human WASHC3, Q9Y3C0

Row | Variant | effect of a mutation on the interaction
1 | L59F | with no effect

Variants of: B2
Details: with nab2_human NAB2, Q15742

Row | Variant | effect of a mutation on the interaction
2 | A523S | with no effect
3 | M248K | with no effect

Variants of: B3
Details: with mbp_human MBP

Row | Variant | effect of a mutation on the interaction
4 | A56T | with no effect

Variants of: B4
Details: with tri18_human MID1, O15344

Row | Variant | effect of a mutation on the interaction
5 | I340V | with no effect
6 | Y61S | with no effect
7 | R449Q | with no effect
8 | I147V | with no effect
9 | E77K | with no effect
10 | K123R | with no effect
11 | K281Q | with no effect
12 | R457H | with no effect
